From PMC3845372 come the findings set out here.

In the series the target is RecA (RecAEc) (Escherichia coli, UniProt P0A7G6 2-353). Kind of series: fluorescence anisotropy. A general note: In fluorescence polarisation assays a small probe gives low polarisation when free and higher when bound to something large.
RecA (RecAEc), sequence (P0A7G6 2-353): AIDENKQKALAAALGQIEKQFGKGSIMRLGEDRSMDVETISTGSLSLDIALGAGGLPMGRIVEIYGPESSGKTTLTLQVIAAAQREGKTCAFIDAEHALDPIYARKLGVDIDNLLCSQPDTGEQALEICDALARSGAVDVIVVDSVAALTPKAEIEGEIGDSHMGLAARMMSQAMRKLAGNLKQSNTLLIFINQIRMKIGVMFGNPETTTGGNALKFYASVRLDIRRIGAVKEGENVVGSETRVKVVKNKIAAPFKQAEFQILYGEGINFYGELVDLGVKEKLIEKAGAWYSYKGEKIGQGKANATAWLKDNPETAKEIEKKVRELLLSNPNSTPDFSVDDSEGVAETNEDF

Consider GGGTGGGTTGGGTGGG (structured_DNA) [dimeric pilE G4 (NG16 core)], for which the binding result is recorded as “no binding”. Turning to TTTTTTTTTTTTTTTT (ssDNA) [oligo dT16], the Kd (usually a measure of binding affinity in units of concentration) worked out at 640 ± 260 nM.
